According to paper PMC4117760:
pKd: −log10 of the molar value.

Columns and labels:
[1] = test system: MBP-CYV VP3 (Culex Y virus (CYV)); assay: EMSA
[2] = target: MBP-DXV VP3 (Drosophila X virus (DXV)) (UniProt Q96724); assay: EMSA
Sequence of UniProt Q96724 (Q96724 whole entry): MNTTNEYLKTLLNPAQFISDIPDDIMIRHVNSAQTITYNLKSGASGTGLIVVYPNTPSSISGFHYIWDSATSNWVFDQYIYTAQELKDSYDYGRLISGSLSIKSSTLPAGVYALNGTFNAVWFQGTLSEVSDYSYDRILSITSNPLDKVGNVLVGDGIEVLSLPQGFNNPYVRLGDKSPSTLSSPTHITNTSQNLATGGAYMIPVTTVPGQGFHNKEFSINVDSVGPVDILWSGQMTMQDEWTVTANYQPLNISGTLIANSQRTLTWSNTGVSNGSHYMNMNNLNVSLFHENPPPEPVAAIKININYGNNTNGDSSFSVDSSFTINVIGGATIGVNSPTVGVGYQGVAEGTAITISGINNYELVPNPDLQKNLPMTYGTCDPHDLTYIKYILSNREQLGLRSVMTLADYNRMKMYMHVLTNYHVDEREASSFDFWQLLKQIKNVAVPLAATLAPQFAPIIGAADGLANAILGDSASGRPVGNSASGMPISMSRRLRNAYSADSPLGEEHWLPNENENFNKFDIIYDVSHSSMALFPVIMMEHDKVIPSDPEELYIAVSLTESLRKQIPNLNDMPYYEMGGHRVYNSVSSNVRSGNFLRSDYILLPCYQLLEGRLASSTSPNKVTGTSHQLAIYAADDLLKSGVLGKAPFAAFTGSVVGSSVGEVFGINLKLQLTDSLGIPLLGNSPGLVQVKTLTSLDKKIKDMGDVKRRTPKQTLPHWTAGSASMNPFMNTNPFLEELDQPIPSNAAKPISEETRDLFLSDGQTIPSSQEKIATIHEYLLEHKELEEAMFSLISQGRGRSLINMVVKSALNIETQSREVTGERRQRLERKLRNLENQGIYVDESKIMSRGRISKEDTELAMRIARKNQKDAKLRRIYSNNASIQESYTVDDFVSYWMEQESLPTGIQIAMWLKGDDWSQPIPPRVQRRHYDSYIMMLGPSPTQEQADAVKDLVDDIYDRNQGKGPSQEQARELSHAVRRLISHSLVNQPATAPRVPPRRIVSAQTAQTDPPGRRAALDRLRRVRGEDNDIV

Substance: 126-nt FLuc dsRNA
- pKd [1]: 6.94
- pKd [2]: 6.78
